Article PMC3074231 (Journal of neurochemistry, 2011)
Values joined by “and” are separate entries in the source; they are usually repeats but may differ in a detail not shown here. Identical values can stand only once.

What was measured:
[1] = target: STEP46 (cytosolic isoform of STEP), wild type
[2] = target: the molecule itself; assay: co-IP
[3] = target: the molecule itself; assay: co-IP; remark: listed apart in the source

Row | Molecule | phosphatase activity of STEP46 in the presence of H2O2, % of control [1] | co-immunoprecipitated STEP61-myc, % of WT control [2] | co-immunoprecipitated STEP61-myc, % of untreated WT control (10 mM H2O2, 5 min) [3]
1 | STEP46 (cytosolic isoform of STEP), wild type (enzyme) | 40.3 % of control | – | –
2 | STEP61 Cys 65 to Ser (enzyme, UniProt P54830-1 1-541, looked up) MCCSERLLGLPQPVEMEAPDEAEGLPSKQKEMPPPPPPSPPSEPAQKLPPQGAGSHSLTVRSSLSLFAASQFLLACGVLWLSGHGHSWLQNTTDLISSSLTVLNHLGPVAWLGSGTWGIPSLLLVSLTVSLVIVTTLVWHLLKAPPEPPAPLPPEDRRQSVSRQPSFTYSEWMEEKVEDDFLDLDAVPETPVFDCVMDIKPETDPASLTVKSMGLQERRGSNVSLTLDMCTPGCNEEGFGYLVSPREESAHEYLLSASRVLRAEELHEKALDPFLLQAEFFEIPMNFVDPKEYDIPGLVRKNRYKTILPNPHSRVRLTSPDPEDPLSSYINANYIRGYSGEEKVYIATQGPIVSTVADFWRMVWQERTPIIVMITNIEEMNEKCTEYWPEEQVVHDGVEITVQKVIHTEDYRLRLISLRRGTEERSLKHYWFTSWPDQKTPDRAPPLLHLVREVEEAAQQEGPHCSPIIVHCSAGIGRTGCFIATSICCQQLRREGVVDILKTTCQLRQDRGGMIQTCEQYQFVHHAMSLYEKQLSLQSSE | – | 38.4 % of control | –
3 | STEP61 C65S/C76S (enzyme, UniProt P54830-1 1-541, looked up) MCCSERLLGLPQPVEMEAPDEAEGLPSKQKEMPPPPPPSPPSEPAQKLPPQGAGSHSLTVRSSLSLFAASQFLLASGVLWLSGHGHSWLQNTTDLISSSLTVLNHLGPVAWLGSGTWGIPSLLLVSLTVSLVIVTTLVWHLLKAPPEPPAPLPPEDRRQSVSRQPSFTYSEWMEEKVEDDFLDLDAVPETPVFDCVMDIKPETDPASLTVKSMGLQERRGSNVSLTLDMCTPGCNEEGFGYLVSPREESAHEYLLSASRVLRAEELHEKALDPFLLQAEFFEIPMNFVDPKEYDIPGLVRKNRYKTILPNPHSRVRLTSPDPEDPLSSYINANYIRGYSGEEKVYIATQGPIVSTVADFWRMVWQERTPIIVMITNIEEMNEKCTEYWPEEQVVHDGVEITVQKVIHTEDYRLRLISLRRGTEERSLKHYWFTSWPDQKTPDRAPPLLHLVREVEEAAQQEGPHCSPIIVHCSAGIGRTGCFIATSICCQQLRREGVVDILKTTCQLRQDRGGMIQTCEQYQFVHHAMSLYEKQLSLQSSE | – | 13.5 % of control and 16.6 % of WT control | 39.4 % of WT control
4 | STEP61 Cys 76 to Ser (enzyme, UniProt P54830-1 1-541, looked up) MCCSERLLGLPQPVEMEAPDEAEGLPSKQKEMPPPPPPSPPSEPAQKLPPQGAGSHSLTVRSSLCLFAASQFLLASGVLWLSGHGHSWLQNTTDLISSSLTVLNHLGPVAWLGSGTWGIPSLLLVSLTVSLVIVTTLVWHLLKAPPEPPAPLPPEDRRQSVSRQPSFTYSEWMEEKVEDDFLDLDAVPETPVFDCVMDIKPETDPASLTVKSMGLQERRGSNVSLTLDMCTPGCNEEGFGYLVSPREESAHEYLLSASRVLRAEELHEKALDPFLLQAEFFEIPMNFVDPKEYDIPGLVRKNRYKTILPNPHSRVRLTSPDPEDPLSSYINANYIRGYSGEEKVYIATQGPIVSTVADFWRMVWQERTPIIVMITNIEEMNEKCTEYWPEEQVVHDGVEITVQKVIHTEDYRLRLISLRRGTEERSLKHYWFTSWPDQKTPDRAPPLLHLVREVEEAAQQEGPHCSPIIVHCSAGIGRTGCFIATSICCQQLRREGVVDILKTTCQLRQDRGGMIQTCEQYQFVHHAMSLYEKQLSLQSSE | – | 35.2 % of control | –
5 | STEP61 (STriatal Enriched Phosphatase, membrane associated isoform), wild type (enzyme, UniProt P54830-1 1-541, looked up) MCCSERLLGLPQPVEMEAPDEAEGLPSKQKEMPPPPPPSPPSEPAQKLPPQGAGSHSLTVRSSLCLFAASQFLLACGVLWLSGHGHSWLQNTTDLISSSLTVLNHLGPVAWLGSGTWGIPSLLLVSLTVSLVIVTTLVWHLLKAPPEPPAPLPPEDRRQSVSRQPSFTYSEWMEEKVEDDFLDLDAVPETPVFDCVMDIKPETDPASLTVKSMGLQERRGSNVSLTLDMCTPGCNEEGFGYLVSPREESAHEYLLSASRVLRAEELHEKALDPFLLQAEFFEIPMNFVDPKEYDIPGLVRKNRYKTILPNPHSRVRLTSPDPEDPLSSYINANYIRGYSGEEKVYIATQGPIVSTVADFWRMVWQERTPIIVMITNIEEMNEKCTEYWPEEQVVHDGVEITVQKVIHTEDYRLRLISLRRGTEERSLKHYWFTSWPDQKTPDRAPPLLHLVREVEEAAQQEGPHCSPIIVHCSAGIGRTGCFIATSICCQQLRREGVVDILKTTCQLRQDRGGMIQTCEQYQFVHHAMSLYEKQLSLQSSE | – | – | 232 % of WT control
